To fix the notation:
B1: Cell division control protein 48 (Saccharomyces cerevisiae), P25694 (parent)
chain: MGEEHKPLLDASGVDPREEDKTATAILRRKKKDNMLLVDDAINDDNSVIAINSNTMDKLELFRGDTVLVKGKKRKDTVLIVLIDDELEDGACRINRVVRNNLRIRLGDLVTIHPCPDIKYATRISVLPIADTIEGITGNLFDVFLKPYFVEAYRPVRKGDHFVVRGGMRQVEFKVVDVEPEEYAVVAQDTIIHWEGEPINREDEENNMNEVGYDDIGGCRKQMAQIREMVELPLRHPQLFKAIGIKPPRGVLMYGPPGTGKTLMARAVANETGAFFFLINGPEVMSKMAGESESNLRKAFEEAEKNAPAIIFIDEIDSIAPKRDKTNGEVERRVVSQLLTLMDGMKARSNVVVIAATNRPNSIDPALRRFGRFDREVDIGIPDATGRLEVLRIHTKNMKLADDVDLEALAAETHGYVGADIASLCSEAAMQQIREKMDLIDLDEDEIDAEVLDSLGVTMDNFRFALGNSNPSALRETVVESVNVTWDDVGGLDEIKEELKETVEYPVLHPDQYTKFGLSPSKGVLFYGPPGTGKTLLAKAVATEVSANFISVKGPELLSMWYGESESNIRDIFDKARAAAPTVVFLDELDSIAKARGGSLGDAGGASDRVVNQLLTEMDGMNAKKNVFVIGATNRPDQIDPAILRPGRLDQLIYVPLPDENARLSILNAQLRKTPLEPGLELTAIAKATQGFSGADLLYIVQRAAKYAIKDSIEAHRQHEAEKEVKVEGEDVEMTDEGAKAEQEPEVDPVPYITKEHFAEAMKTAKRSVSDAELRRYEAYSQQMKASRGQFSNFNFNDAPLGTTATDNANSNNSAPSGAGAAFGSNAEEDDDLYS
partner: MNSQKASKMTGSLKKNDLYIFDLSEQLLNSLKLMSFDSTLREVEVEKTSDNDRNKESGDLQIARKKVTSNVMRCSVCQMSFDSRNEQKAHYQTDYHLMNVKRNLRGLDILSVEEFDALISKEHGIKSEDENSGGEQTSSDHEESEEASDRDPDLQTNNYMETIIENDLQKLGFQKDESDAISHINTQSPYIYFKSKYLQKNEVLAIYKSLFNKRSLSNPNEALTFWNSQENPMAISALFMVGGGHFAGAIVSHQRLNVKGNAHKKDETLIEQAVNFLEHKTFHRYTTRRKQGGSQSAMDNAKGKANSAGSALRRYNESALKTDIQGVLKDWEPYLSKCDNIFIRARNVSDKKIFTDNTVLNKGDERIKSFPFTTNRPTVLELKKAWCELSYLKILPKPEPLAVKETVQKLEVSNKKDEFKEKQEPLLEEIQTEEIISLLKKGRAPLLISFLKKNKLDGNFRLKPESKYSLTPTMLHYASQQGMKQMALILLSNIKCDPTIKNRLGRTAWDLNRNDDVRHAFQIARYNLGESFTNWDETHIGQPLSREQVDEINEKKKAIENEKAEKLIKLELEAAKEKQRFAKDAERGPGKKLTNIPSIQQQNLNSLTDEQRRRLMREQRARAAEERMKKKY
B2: tRNA endonuclease ANKZF1 (Mus musculus), Q80UU1 (parent)
chain: MAKPAGDAAVGSRSGELFLPSVSSSATSPAPSAAPAPASVSLLSLNGEAPLIRGLSLVSQAPGEALAWAPRTSCPGENTSSGGKVSPYSLEISEKLFCSACDQIFQNHQEQREHYKLDWHRFNLKQRLKNKPLLSASDFEQQSSTGDLSSISGSDDTDSSSEEDLLPLDEGRAESEKPNRPPGFYPHRVLFKNAQGQFLYAYRCVLGPHQIPPEKAELLLQNLQNGGPRYYVVLMAAAGHFAGAIFQGREVVAHKTFHRYTVRAKRGTAQGLQDAHGRASRSAGANLRRYNEAMLYKDVRNLLAGPIWSKALGEAETVLFRAPRSGRSLFFGGQGAPLQRDDPRLWDIPLTTRRPTFGELQRVLHKLTTLQVYDEDPREMVRFHSPETHWKPVREERKKDTEKEKTKVPSDANKPLGQDEEPLKQGSESQEEDGSEVELELVELTLGTLDLREFEVLPKRRRRRKKKERSQEQQCGAHGPLPQQPQDEPFSQPTQEVETPLDTLVYEAKAPGQPELWDTLLAACRAGEVEVLKLQLATGLVDPGVKSLLNAPLGSGGFTLLHAAAAAGRGLVVRLLLEAGADPTVQDSRARPPYTVAADKSTRNEFRRFMEKNLDAYDYNKARVPGPLTQEMEARQATRKKEQKAARRQREQQQRKQREQEEQEQEEQRRFAALSDREKRALAAERRLAAQLGAPSPPVPDSAVASAGRCWSCGVSLQGLIPFHYLDFSFCSTRCLRDHRSQAGRPSS

In the first test the parent is B1. The settings on record: with vms1_yeast VMS1, Q04311.
S565E: the “effect of a mutation on the interaction” value is reported as “decreasing interaction strength”.

In a further test the parent is B2. The settings on record: with tera_mouse Vcp.
As to E685A;R686A;R687A, the “effect of a mutation on the interaction” value was “decreasing interaction strength”.
